These results are taken from patent US20050227220A1, “Compositions and Methods for Evaluating and Designing Nuclear Receptor Ligands that Modulate Co-Regulator Affinity” (priority 2002, published 2005).

B1: human PPARγ ligand binding domain (amino acids 206-477) (receptor)
chain: MKKGHHHHHHGPESADLRALAKHLYDSYIKSFPLTKAKARAILTGKTTDKSPFVIYDMNSLMMGEDKIKFKHITPLQEQSKEVAIRIFQGCQFRSVEAVQEITEYAKSIPGFVNLDLNDQVTLLKYGVHEIIYTMLASLMNKDGVLISEGQGFMTREFLKSLRKPFGDFMEPKFEFAVKFNALELDDSDLAIFIAVIILSGDRPGLLNVKPIEDIQDNLLQALELQLKLNHPESSQLFAKLLQKMTDLRQIVTEHVQLLQVIKKTETDMSLHPLLQEIYKDLY
notes: range 206-477; placed at the N-terminus here; Biotinylated for FRET; also called PPARγ LBD
B3: RXRα ligand binding domain (amino acids 225-462) (receptor, UniProt P19793 225-462, looked up)
chain: SANEDMPVERILEAELAVEPKTETYVEANMGLNPSSPNDPVTNICQAADKQLFTLVEWAKRIPHFSELPLDDQVILLRAGWNELLIASFSHRSIAVKDGILLATGLHVHRNSAHSAGVGAIFDRVLTELVSKMRDMQMDKTELGCLRAIVLFNPDSKGLSNPAEVEALREKVYASLEAYCKHKYPEQPGRFAKLLLRLPALRSIGLKCLEHLFFFKLIGDTPIDTFLMEMLEAPHQMT
notes: range 225-462; Biotinylated for FRET; also called RXRα LBD; not shown: His-tag
B4: Fluoroscein-NCOR ID-C peptide (NCoR amino acids 2251-2275) (peptide)
peptide: fluorescein-GHSFADPASNLGLEDIIRKALMGSF
notes: also called NCOR peptide; NCoR 2251-2275
B5: human PPARδ ligand binding domain (amino acids 139-441) (receptor)
chain: MKKGHHHHHHGSHNAIRFGRMPEAEKRKLVAGLTANEGSQYNPQVADLKAFSKHIYNAYLKNFNMTKKKARSILTGKASHTAPFVIHDIETLWQAEKGLVWKQLVNGLPPYKEISVHVFYRCQCTTVETVRELTEFAKSIPSFSSLFLNDQVTLLKYGVHEAIFAMLASIVNKDGLLVANGSGFVTREFLRSLRKPFSDIIEPKFEFAVKFNALELDDSDLALFIAAIILCGDRPGLMNVPRVEAIQDTILRALEFHLQANHPDAQYLFPKLLQKMADLRQLVTEHAQMMQRIKKTETETSLHPLLQEIYKDMY
modifications: Biotinylated (site not stated) in the FRET assays; unlabelled in fluorescence polarization and SPR.
notes: placed at the N-terminus here; Biotinylated for FRET; also called PPARδ LBD

The target in experiment [1] is T1, TRAP220 peptide (amino acids 575-599) (not fully specified; printed as N-terminal biotin in Example 1; label in the polarization assay not specified).
T1 construct: also called TRAP220 575-599
T1 peptide: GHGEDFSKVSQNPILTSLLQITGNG
In words: fluorescence polarization, with GW1929.

Experiment [2] concerns the target B4. In words: fluorescence polarization, with GW1929. (In fluorescence polarisation assays a small probe gives low polarisation when free and higher when bound to something large.)
The target of experiment [3] is T1, TRAP220 peptide (amino acids 575-599). In words: fluorescence polarization, with rosiglitazone.
In experiment [4] the target is B4. Briefly: fluorescence polarization, with rosiglitazone.
The target in the next experiment is T2, GAL4-NcoR (1944-end) (UniProt P04386 1-147; O75376 1944-2440).
T2 construct: range 1-147;range 1944-end; Two-hybrid construct; also called larger fragment of NCoR (1944-end)
In words: mammalian two-hybrid in CV-1 cells.

In experiment [5] the target is B1. Briefly: FRET, biotinylated PPAR LBD and RXRα LBD on labelled streptavidin.
Experiment [6] deals with T3, human PPARα ligand binding domain (amino acids 192-468) (human, UniProt Q07869 192-468).
T3 construct: range 192-468; placed at the N-terminus here; Biotinylated for FRET; also called PPARα LBD
T3 sequence: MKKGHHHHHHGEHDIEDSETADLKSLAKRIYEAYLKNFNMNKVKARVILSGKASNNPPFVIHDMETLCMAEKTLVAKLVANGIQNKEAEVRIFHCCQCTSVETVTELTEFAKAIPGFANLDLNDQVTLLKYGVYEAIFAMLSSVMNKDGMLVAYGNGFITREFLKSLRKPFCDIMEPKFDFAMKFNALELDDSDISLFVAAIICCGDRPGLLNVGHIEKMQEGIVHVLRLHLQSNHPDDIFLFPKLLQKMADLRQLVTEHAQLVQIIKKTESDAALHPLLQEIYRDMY
Described as above.

Experiment [7] deals with B5. Described as above.
The target of experiment [8] is B1. Briefly: fluorescence polarization, 10 nM fluorescein peptide, LBD titrated, no ligand.
The target of experiment [9] is T3, human PPARα ligand binding domain …. The experiment is described as above.
The target of experiment [10] is T4, RARα ligand binding domain (amino acids 146-432) (UniProt P10276 146-432).
T4 construct: range 146-432; not shown: His-tag
T4 sequence (looked up): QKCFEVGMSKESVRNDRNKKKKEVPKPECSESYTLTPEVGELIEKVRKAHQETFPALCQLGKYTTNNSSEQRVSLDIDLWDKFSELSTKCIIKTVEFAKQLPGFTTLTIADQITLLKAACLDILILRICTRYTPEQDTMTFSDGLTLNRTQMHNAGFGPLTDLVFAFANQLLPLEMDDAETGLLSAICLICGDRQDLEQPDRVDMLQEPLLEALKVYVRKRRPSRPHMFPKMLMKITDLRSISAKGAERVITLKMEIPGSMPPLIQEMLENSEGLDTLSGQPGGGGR
Described as above.

Experiment [11] deals with B3. Described as above.
For experiment [12], the target named is T5, ERβ ligand binding domain (amino acids 257-530) (UniProt Q92731 257-530).
T5 construct: range 257-530; not shown: His-tag
T5 sequence (Q92731 257-530 limits assumed): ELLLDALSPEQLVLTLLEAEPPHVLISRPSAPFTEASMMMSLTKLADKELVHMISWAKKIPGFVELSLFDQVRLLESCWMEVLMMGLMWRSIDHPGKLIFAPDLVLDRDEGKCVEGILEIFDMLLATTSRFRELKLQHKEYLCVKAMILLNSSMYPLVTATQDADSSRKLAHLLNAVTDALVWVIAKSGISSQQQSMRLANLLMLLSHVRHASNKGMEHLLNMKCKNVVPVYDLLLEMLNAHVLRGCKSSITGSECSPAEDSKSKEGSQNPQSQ
The description is as above.

Experiment [13] deals with T6, TRβ ligand binding domain (UniProt P10828 202-461, limits assumed).
T6 construct: also called Thyroid Receptor LBD; TRβ LBD
T6 sequence (looked up): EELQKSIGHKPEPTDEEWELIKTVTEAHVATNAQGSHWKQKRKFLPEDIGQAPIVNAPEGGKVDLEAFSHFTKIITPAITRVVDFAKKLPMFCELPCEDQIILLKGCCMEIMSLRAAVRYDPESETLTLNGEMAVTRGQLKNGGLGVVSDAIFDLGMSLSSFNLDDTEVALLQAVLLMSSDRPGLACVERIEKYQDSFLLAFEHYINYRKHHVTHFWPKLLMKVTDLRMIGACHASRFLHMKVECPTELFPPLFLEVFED
Described as above.

Experiment [14] deals with B5. The description is as above.
For experiment [15], the target named is T6, TRβ ligand binding domain. Briefly: fluorescence polarization, apparent affinity, with T3.
For experiment [16], the target named is B1. In words: fluorescence polarization, apparent affinity, with rosiglitazone.
The target in experiment [17] is B5. The description is as above.
The target in experiment [18] is B1. In words: fluorescence polarization, apparent affinity, no ligand.
Experiment [19] has as its target T6, TRβ ligand binding domain. Described as above.
For experiment [20], the target named is B1. Briefly: fluorescence polarization, apparent affinity, with GW1929.
For experiment [21], the target named is B5. Described as above.
For experiment [22], the target named is T7, biotin-NCOR ID-C peptide (NCoR amino acids 2251-2275) (N-terminal biotin).
T7 construct: also called NCOR-derived co-repressor peptide
T7 peptide: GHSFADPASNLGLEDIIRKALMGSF
Briefly: FRET, with GW7845.

Experiment [23] deals with T7, biotin-NCOR ID-C peptide (NCoR amino …). Briefly: FRET, with GW1929.

No end group written: not given here. fluorescein = fluorescein: fluorescein label attached at the N-terminus of the peptide

Consider B1, for which the “fold increase in affinity with GW1929 against no ligand” value in experiment [1] came to 5 fold. In addition, in [2], the “fold decrease in affinity with GW1929 against no ligand” value is 5 fold. Further, the “fold increase in affinity with rosiglitazone against no ligand” value in [3] is ~3 fold. Moreover, the “fold decrease in affinity with rosiglitazone against no ligand” value in experiment [4] was ~4 fold.

B2: VP16-human PPARα (full length) (other)
chain: LSTAPPTDVSLGDELHLDGEDVAMAHADALDDFDLDMLGDGDSPGPGFTPHDSAPYGALDMADFEFEQMFTDALGIDEYGGMVDTESPLCPLSPLEAGDLESPLSEEFLQEMGNIQEISQSIGEDSSGSFGFTEYQYLGSCPGSDGSVITDTLSPASSPSSVTYPVVPGSVDESPSGALNIECRICGDKASGYHYGVHACEGCKGFFRRTIRLKLVYDKCDRSCKIQKKNRNKCQYCRFHKCLSVGMSHNAIRFGRMPRSEKAKLKAEILTCEHDIEDSETADLKSLAKRIYEAYLKNFNMNKVKARVILSGKASNNPPFVIHDMETLCMAEKTLVAKLVANGIQNKEAEVRIFHCCQCTSVETVTELTEFAKAIPGFANLDLNDQVTLLKYGVYEAIFAMLSSVMNKDGMLVAYGNGFITREFLKSLRKPFCDIMEPKFDFAMKFNALELDDSDISLFVAAIICCGDRPGLLNVGHIEKMQEGIVHVLRLHLQSNHPDDIFLFPKLLQKMADLRQLVTEHAQLVQIIKKTESDAALHPLLQEIYRDMY
notes: also called VP16 full length PPARα
Turning to B2, in the experiment with GAL4-NcoR (1944-end), the binding result is given as “binds”.

In the case of B3, the binding result in experiment [5], in [6] and in experiment [7] was “binds” each time.

Regarding B4, the Kd in [8] stood at 1.3 µM; in experiment [9], 6.1 µM; in [10] it was 2 µM; in [11], 25 µM; in experiment [12], 37 µM; in [13], 1.3 µM. Also, the Kd in [14] was 5.7 µM; in experiment [15], 6.2 µM; in experiment [16], 4.7 µM; in [17] it was 5 µM; in [18] it was 1.2 µM; in experiment [19], 0.72 µM. Further, the Kd in experiment [20] was determined as 6.7 µM; in experiment [21], 0.44 µM.

Regarding B5, the figures for the “log α (ratio of cofactor affinities with and without saturating ligand)” value in experiment [22] and in experiment [23] were 0.14 and 0.52, respectively. The “fold increase in affinity with GW1929 against no ligand” value in experiment [2] turned out to be 12 fold.
